The record followed here is patent publication US20080108546A1 (VLAAMS INTERUNIVERSITAIR INSTITUUT, published 2008).

In the assay the target is T1, E-epitope tagged human RIP2 (human, UniProt O43353 1-540).
T1 construct: ORF cloned in pCAGGS-E, expressed in 293T cells; also called E-RIP2
The assay is described as follows: co-immunoprecipitation from 293T lysates, anti-Flag IP, anti-E immunoblot. How it is done:
FIG. 4: Interactions of INCA with other CARD-containing proteins. Co-immunoprecipitation assays were performed using lysates from 293T cells that have been transiently transfected with plasmids encoding various epitope-tagged proteins as indicated, including Flag-INCA, E-INCA, E-procaspase-1, E-COP, E-ICEBERG, E-RIP2 and E-procaspase-2 CARD. Immunoprecipitates were prepared using anti-Flag antibody adsorbed to protein G-sepharose and analyzed by SDS-PAGE/immunoblotting using anti-E epitope tag antibody and chemoluminescence-based detection. Aliquots of the same lysates were also analyzed directly by SDS-PAGE/immunoblotting as indicated. IP, immunoprecipitation; WB: Western blotting.
293T is a human embryonal kidney carcinoma cell line. 293T cells were routinely transfected using the calcium phosphate precipitation method (O'Mahoney and Adams, 1994). Cells were seeded the day before transfection at 2×10⁵ cells/6-well. Cells were transfected for 4 h, washed and incubated for another 24 h before lysates were prepared by harvesting the cells and lysing them in ice-cold NP-40 lysis buffer (10 mM HEPES pH 7.4, 142.5 mM KCl, 0.2% NP-40, 5 mM EGTA), supplemented with 1 mM DTT, 12.5 mM β-glycerophosphate, 1 mM Na₃VO₄, 1 mM PMSF, and 1× protease inhibitor mix (Roche, Basel, Switzerland). […] Alternatively, lysates were analyzed directly by immunoblotting after normalization for total protein content. […]

T1 sequence (O43353 whole entry): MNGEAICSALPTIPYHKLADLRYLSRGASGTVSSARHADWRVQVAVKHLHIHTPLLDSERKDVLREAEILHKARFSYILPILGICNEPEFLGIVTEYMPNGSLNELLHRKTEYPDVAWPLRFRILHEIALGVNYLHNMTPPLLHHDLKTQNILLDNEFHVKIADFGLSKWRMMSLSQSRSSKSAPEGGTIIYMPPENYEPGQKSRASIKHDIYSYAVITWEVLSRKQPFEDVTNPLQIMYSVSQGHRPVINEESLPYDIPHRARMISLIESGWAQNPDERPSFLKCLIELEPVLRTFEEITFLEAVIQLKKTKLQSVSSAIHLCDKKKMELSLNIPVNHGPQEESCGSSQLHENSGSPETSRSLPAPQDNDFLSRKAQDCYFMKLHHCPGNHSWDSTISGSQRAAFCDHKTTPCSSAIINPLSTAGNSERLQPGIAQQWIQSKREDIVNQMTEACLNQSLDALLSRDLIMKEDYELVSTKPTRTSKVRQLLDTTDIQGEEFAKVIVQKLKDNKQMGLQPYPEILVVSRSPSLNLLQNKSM

B1: Flag-tagged INCA (Inhibitory CARD) (other, not shown: small tags and cut ends)
chain: MADKVLKEKRKQFIRSVGEGTINGLLGELLETRVLSQEEIEIVKCENATVMDKARALLDSVIRKGAPACQICITYICEEDSHLAGTLGLSAGPTSGNHLTTQDSQIVLPS
notes: Expressed in 293T cells (pCAGGS-Flag) for co-immunoprecipitation; Flag-tagged INCA also expressed stably in THP-1 cells from a retroviral vector; also called Flag-INCA
With B1, the binding result was “no binding”.
